Laboratory results: paper PMC10611751, “Dynamic interactions between E-cadherin and Ankyrin-G mediate epithelial cell polarity maintenance” (Nature Communications, 2023)
Where “and” joins values, the source holds several entries; their conditions need not be identical. Equal values may be shown once.

T1: full-length β-catenin 1-781 (mouse, UniProt Q02248 1-781)
T1 construct: also called β-catenin FL; source: E. coli BL21 (DE3), purified (Ni-NTA, SEC)
T1 sequence (looked up): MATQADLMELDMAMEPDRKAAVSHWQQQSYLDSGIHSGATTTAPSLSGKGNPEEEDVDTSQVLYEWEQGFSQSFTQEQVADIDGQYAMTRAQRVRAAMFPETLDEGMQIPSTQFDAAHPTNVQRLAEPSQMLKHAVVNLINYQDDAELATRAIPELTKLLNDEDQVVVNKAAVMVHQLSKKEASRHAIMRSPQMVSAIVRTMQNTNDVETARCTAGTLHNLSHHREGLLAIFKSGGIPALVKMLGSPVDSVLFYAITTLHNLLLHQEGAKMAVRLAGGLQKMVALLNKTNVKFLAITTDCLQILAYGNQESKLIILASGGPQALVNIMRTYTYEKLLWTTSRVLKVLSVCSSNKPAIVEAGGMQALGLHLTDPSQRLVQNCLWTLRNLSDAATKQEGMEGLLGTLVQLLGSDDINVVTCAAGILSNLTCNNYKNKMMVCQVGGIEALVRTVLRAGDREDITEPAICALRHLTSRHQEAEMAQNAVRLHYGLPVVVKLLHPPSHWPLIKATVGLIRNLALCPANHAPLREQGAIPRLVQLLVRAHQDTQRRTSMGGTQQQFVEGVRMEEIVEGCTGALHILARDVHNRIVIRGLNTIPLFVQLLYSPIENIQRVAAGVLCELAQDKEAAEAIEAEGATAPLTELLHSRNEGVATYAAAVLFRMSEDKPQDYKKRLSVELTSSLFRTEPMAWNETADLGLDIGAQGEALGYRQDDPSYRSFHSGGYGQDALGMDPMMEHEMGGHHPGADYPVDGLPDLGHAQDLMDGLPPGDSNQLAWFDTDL

B1: Ankyrin-G 24 ANK repeats (residues 38-855) (domain or fragment, UniProt O70511 38-855, looked up)
chain: KSDANASYLRAARAGHLEKALDYIKNGVDVNICNQNGLNALHLASKEGHVEVVSELLQREANVDAATKKGNTALHIASLAGQAEVVKVLVTNGANVNAQSQNGFTPLYMAAQENHLEVVRFLLDNGASQSLATEDGFTPLAVALQQGHDQVVSLLLENDTKGKVRLPALHIAARKDDTKAAALLLQNDTNADIESKMVVNRATESGFTPLHIAAHYGNINVATLLLNRAAAVDFTARNDITPLHVASKRGNANMVKLLLDRGAKIDAKTRDGLTPLHCGARSGHEQVVEMLLDRAAPILSKTKNGLSPLHMATQGDHLNCVQLLLQHNVPVDDVTNDYLTALHVAAHCGHYKVAKVLLDKKANPNAKALNGFTPLHIACKKNRIRVMELLLKHGASIQAVTESGLTPIHVAAFMGHVNIVSQLMHHGASPNTTNVRGETALHMAARSGQAEVVRYLVQDGAQVEAKAKDDQTPLHISARLGKADIVQQLLQQGASPNAATTSGYTPLHLSAREGHEDVAAFLLDHGASLSITTKKGFTPLHVAAKYGKLEVASLLLQKSASPDAAGKSGLTPLHVAAHYDNQKVALLLLDQGASPHAAAKNGYTPLHIAAKKNQMDIATSLLEYGADANAVTRQGIASVHLAAQEGHVDMVSLLLSRNANVNLSNKSGLTPLHLAAQEDRVNVAEVLVNQGAHVDAQTKMGYTPLHVGCHYGNIKIVNFLLQHSAKVNAKTKNGYTPLHQAAQQGHTHIINVLLQNNASPNELTVNGNTALAIARRLGYISVVDTLKVVTEEIMTTTTITEKHKMNVPETMNEVLDMS
notes: Ankyrin-G, 24 ANK repeats, residues 38-855; The ITC methods name 'Trx-AnkG R1-24'; also called AnkG R1-24; AnkG ANK repeats; source: E. coli BL21 (DE3), purified (Ni-NTA, SEC); not shown: Trx, N-terminal, kept; His6, N-terminal, kept
B2: E-cadherin C-terminal domain (residues 734-884) (domain or fragment)
chain: not shown
notes: The ITC methods name 'Trx-E-cadherin'; 15N-labelled for the HSQC titration; also called E-cadherin CTD; CTD; source: E. coli BL21 (DE3), purified (Ni-NTA, SEC); not shown: Trx, N-terminal, kept; His6, N-terminal, kept

Experiments:
Conditions in all cases: both partners purified
[1] = biological target: B1; test: SEC-MALS; FPLC coupled with static light scattering; 70 μM E-cadherin with 70, 140, 210 or 280 μM AnkG (molar ratios 1:1 to 1:4); Superdex 200 increase; 50 mM Tris, 100 mM NaCl, 1 mM EDTA, 1 mM DTT, pH 7.8
[2] = biological target: B1; test: ITC; E-cadherin proteins in the syringe (e.g. 200 μM Trx-E-cadherin) titrated into AnkG in the cell (e.g. 20 μM Trx-AnkG R1-24); 25 °C; 50 mM Tris, 100 mM NaCl, 1 mM EDTA, 1 mM DTT, pH 7.8; one-site binding model
[3] = biological target: B2; test: SEC-MALS; FPLC coupled with static light scattering; 70 μM E-cadherin with 70, 140, 210 or 280 μM AnkG (molar ratios 1:1 to 1:4); Superdex 200 increase; 50 mM Tris, 100 mM NaCl, 1 mM EDTA, 1 mM DTT, pH 7.8
[4] = biological target: T2, E-cadherin CTD–β-catenin complex (mouse, UniProt P09803 734-884; Q02248 1-781); test: SEC-MALS; analytical gel filtration with static light scattering; AnkG R1-24, E-cadherin CTD and β-catenin 1-781 mixed at 1:1:1, 2:1:1, 3:1:1 and 4:1:1 molar ratios; also E-cadherin CTD with β-catenin 1-781 alone
T2 construct: Formed beforehand for the ITC titration to AnkG R1-24; in the light scattering experiment the three proteins were mixed together; source: E. coli BL21 (DE3), purified (Ni-NTA, SEC)
T2 sequence (P09803 734-884, one chain of several): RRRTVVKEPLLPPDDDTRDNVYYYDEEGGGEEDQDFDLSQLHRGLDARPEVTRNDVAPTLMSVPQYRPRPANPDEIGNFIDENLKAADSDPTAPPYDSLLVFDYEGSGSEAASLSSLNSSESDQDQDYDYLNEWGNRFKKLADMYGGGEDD

[5] = biological target: T1, full-length β-catenin 1-781; test: as above

| Kd [2] [nM] | Binder | other results |
| --- | --- | --- |
| ~1900 | E-cadherin 828-884 (including both site-2 and site-3) (domain or fragment, source: E. coli BL21 (DE3), purified (Ni-NTA, SEC); not shown: Trx, N-terminal, kept; His6, N-terminal, kept) not shown | stoichiometry N [1]: 1 |
| ~1800 | ESDQDQDYDYLNEWGN (domain or fragment, mouse, UniProt P09803 854-869, looked up, E-cadherin, mouse, residues 854-869; also called E-cadherin site-3; source: E. coli BL21 (DE3), purified (Ni-NTA, SEC); not shown: Trx, N-terminal, kept; His6, N-terminal, kept) [E-cadherin residues 854-869 (site-3)] | – |
| – | B1 | stoichiometry N [3]: 1 AnkG R1-24 per E-cadherin CTD and 2 AnkG R1-24 per E-cadherin CTD; stoichiometry N [4]: 1 to 2 AnkG R1-24 per E-cadherin CTD and β-catenin |
| ~1300 | B2 | stoichiometry N [2]: ~0.22; binding result [5]: binds |
| ~1900 | PYDSLLVFDYEGSGS (domain or fragment, mouse, UniProt P09803 828-842, looked up, For the methyl-TROSY NMR fused to the N-terminus of AnkG R8-24; also called E-cadherin site-2; source: E. coli BL21 (DE3), purified (Ni-NTA, SEC); not shown: Trx, N-terminal, kept; His6, N-terminal, kept) [E-cadherin residues 828-842 (site-2)] | – |
| ~900 | YYYDEEGGGEEDQDFD (domain or fragment, mouse, UniProt P09803 755-770, looked up, E-cadherin, mouse, residues 755-770; also called E-cadherin site-1; source: E. coli BL21 (DE3), purified (Ni-NTA, SEC); not shown: Trx, N-terminal, kept; His6, N-terminal, kept) [E-cadherin residues 755-770 (site-1)] | – |
